Laboratory results published in article PMC11178655, “Dosimetry and pharmacokinetics of [^177Lu]Lu-satoreotide tetraxetan in patients with progressive neuroendocrine tumours” (European Journal of Nuclear Medicine and Molecular Imaging, 2024).
Where a SMILES comes first, the peptide text is derived from it. Bridges are numbered along the chain shown (N, C = ends). [ ]: non-standard residue; d: D form. The star is where a group is joined. DOTA = O=C(O)CN1CCN(CC(=O)O)CCN(CC(=O)*)CCN(CC(=O)O)CC1; dPhe(4-NHCONH2) = NC(=O)Nc1ccc(C[C@@H](N)C(=O)O)cc1; Dihydroorotyl(S) = O=C1C[C@@H](C(=O)*)NC(=O)N1; Phe(4-Cl) = N[C@@H](Cc1ccc(Cl)cc1)C(=O)O; Phe(4-NH2) = Nc1ccc(C[C@H](N)C(=O)O)cc1

Legend:
[1] = tested on: patients with progressive, SSTR-positive NETs; experiment: Blood-based bone marrow dosimetry (part A); type: in vivo, human; conditions: cycles 1–3, 11 evaluated patients, median
Experimental: To generate pharmacokinetic data, blood samples (2 mL) were taken at the stop of infusion (0 min) and 5, 30, and 60 min, 4 h, and 1, 2, 3, and 6 days after the end of each [^177Lu]Lu-satoreotide tetraxetan administration. Urine samples were collected over three intervals within 48 h (0–6 h, 6–24 h, and 24–48 h in part A; 0–4 h, 4–24 h, and 24–48 h in part B) following the first treatment cycle of [^177Lu]Lu-satoreotide tetraxetan. Total activity concentrations in whole blood and urine were determined locally, using a gamma counter calibrated for lutetium-177. In two selected study centres, additional blood samples (2 mL) were collected at 1 min, 4 h, and 1, 2, 3, and 6 days after each [^177Lu]Lu-satoreotide tetraxetan administration to evaluate potential radioactive metabolites in plasma.
Patient-specific dosimetry calculations were performed after each treatment cycle in both parts A and B, using the absorbed dose calculation features of the NUKDOS software for image-based dosimetry calculations. The NUKDOS software was chosen as it allowed for an integral approach to organ dosimetry (including image quantification, time-activity curve-fitting and dosimetry calculation). For the bone marrow, both image-based and blood-based calculations were performed in part A [28, 29]. In part B, only image-based bone marrow dosimetry was performed. […]

[2] = tested on: patients with progressive NETs; conditions: cited from earlier work
Description: A novel radiolabelled SSTR antagonist, [^177Lu]Lu-satoreotide tetraxetan (also known as [^177Lu]^177Lu-SSO110, [^177Lu]^177Lu-IPN01072, [^177Lu]^177Lu-OPS201 or [^177Lu]^177Lu-DOTA-JR11), has recently shown a favourable pharmacokinetic and biodistribution profile, as ... || In the present study, we observed tumour ADCs of 5.0 Gy/GBq after cycle 1 and 4.0 Gy/GBq after cycle 3. These tumour ADCs are consistent with previously reported findings from a direct comparison of [^177Lu]Lu-satoreotide tetraxetan and [^177Lu]Lu-DOTA-TATE in the same tumours and patients in a cross-over design, which reported median tumour dose of [^177Lu]Lu-satoreotide tetraxetan of 7.0 Gy/GBq (range: 4.2–29 Gy/GBq), 3.5 times greater than the median tumour dose of [^177Lu]Lu-DOTA-TATE [22]. However, it should be noted that median tumour dose in this pilot study was calculated from a limi ...

[3] = on average, single mean activity 1.0 GBq vs 1.1 GBq, four patients

## C[C@@H](O)[C@@H]1NC(=O)[C@H](CCCCN)NC(=O)[C@@H](Cc2ccc(NC(N)=O)cc2)NC(=O)[C@H](Cc2ccc(NC(=O)[C@@H]3CC(=O)NC(=O)N3)cc2)NC(=O)[C@H](NC(=O)[C@H](Cc2ccc(Cl)cc2)NC(=O)CN2CCN(CC(=O)O)CCN(CC(=O)O)CCN(CC(=O)O)CC2)CSSC[C@@H](C(=O)N[C@H](Cc2ccc(O)cc2)C(N)=O)NC1=O [[^177Lu]Lu-satoreotide tetraxetan, metal not drawn] ({DOTA}-[Phe(4-Cl)][dC][Phe(4-NH2)](Dihydroorotyl(S))[dPhe(4-NHCONH2)]KTC[dY]-NH2; disulfide 2-7 (inferred); C-terminus assumed)
[1]
  Cumulative absorbed dose, bone marrow, blood-based method: 0.3 Gy
[2]; cross-over design, 13 lesions in 4 patients
  Median tumour dose: 7.0 Gy/GBq
[2]; [3]
  Tumour absorbed dose compared with [^177Lu]Lu-DOTA-TATE: three-fold higher
  Tumour-to-kidney absorbed dose ratio compared with [^177Lu]Lu-DOTA-TATE: two-fold higher
[2]; same tumours and patients, cross-over
  Median tumour dose relative to [^177Lu]Lu-DOTA-TATE: 3.5 times
